Experimental data as given in US6946588B2, “Nucleic acid encoding a modified threonine deaminase and methods of use” (Monsanto Technology LLC, priority 1996, dated 2005).

Legend:
[1] = system: A. eutrophus PhbA and BktB β-ketothiolases; test: β-Ketothiolase condensation assay with 1-14C-acetyl-CoA (PhbA, BktB); assay type: biochemical; details: 0.30 mM acetyl-CoA
Source text: As noted above, A. eutrophus can produce P(3HB-co-3HV) copolymer when provided with an appropriate C5 precursor. […] One of these β-ketothiolases, designated BktB herein, was encoded on plasmid pBK6. A. eutrophus BktB was obtained from E. coli DH5α transformed with plasmid pMON25754. pMON25754 was produced from the A. eutrophus pBK6 clone (Slater et al., 1988) by deleting a 5.0 kb XhoI fragment (there is an additional XhoI site approximately 5.0 kb 5′ to the XhoI site shown in FIG. 1 of Slater et al.). The pBK6 clone was produced by Slater et al. (1988) from A. eutrophus H16, i.e., ATCC accession number 17699, which is publicly available from the American Type Culture Collection, 12301 Parklawn Drive, Rockville, Md. 20852. BktB was overexpressed from its native promoter on the high copy plasmid pMON25754 by growing the cells overnight at 37° C. to stationary phase in LB broth containing ampicillin (100 μg/ml). A. eutrophus PhbA was obtained from E. coli DH5α transformed with pMON25636 (FIG. 20) by growing the cells at 37° C. in LB broth containing ampicillin (100 μg/ml) to early log phase and then inducing with IPTG. Cells were harvested after two hours of further growth.
The activity of β-ketothiolases can be assayed in both the condensation and thiolysis directions. However, condensation activity for products that are the result of a mixed condensation of acetyl-CoA and a longer chain acyl-CoA are difficult to measure. This is due to the difficulty in distinguishing between acetoacetyl-CoA, the product of condensing two acetyl-CoA molecules, and the mixed condensation reaction product, both of which form simultaneously. To date, condensation assays have been spectrophotometrically-based, but these are valid only when there is a single acyl-CoA substrate present (i.e., acetyl-CoA) since they cannot discriminate between the products formed. The assay described below represents the first reported assay that permits complete quantitation of all condensation products regardless of the nature of starting substrates.
β-ketothiolase assays designed to measure the condensation activity with acetyl-CoA plus either propionyl-CoA or butyryl-CoA were performed using 1-^14C-labelled acetyl-CoA. Since the equilibrium for the reaction lies heavily toward the starting acyl-CoAs rather than the condensed β-ketoacyl-CoA product, the latter was “pulled” to the corresponding β-hydroxyacyl-CoA using NADH and β-ketoacyl-CoA dehydrogenase. In addition, to avoid the strong feedback inhibition of β-ketothiolase by free CoA, each assay solution contained 5,5′-dithio-bis(2-nitrobenzoic acid) (DTNB) to trap chemically the free CoA produced by the reaction.
The condensation assay mixture (0.5 ml final volume) contained 100 mM KPi, pH 7.8, 0.5 mM NADH, 0.30 mM 1-^14C-acetyl-CoA (0.15 μCi), 5 units β-ketoacyl-CoA dehydrogenase, 0.5 mM DTNB, and variable propionyl- or butyryl-CoA as indicated in Table 5. The reaction was initiated by the addition of β-ketothiolase. Following 20 minutes at 30° C., each reaction mixture was quenched by the addition of 25 μl of 10% formic acid. Thirty μl of 25% H2SO4 were added to 200 μl of quenched reaction mix; this mixture was then incubated at 70° C. for 24 hours to hydrolyze all CoA thioesters to their free acids. Sixty μl of 5 M sodium formate were added to the sample to neutralize the pH, followed by analysis of a 130 μl aliquot using C18-reverse-phase HPLC (0.5×25 cm column). Detection and quantitation were carried out by monitoring flow-through with a Radiomatic flow detector. A gradient elution was employed using aqueous 1% acetic acid (solvent A) and acetonitrile (solvent B). […]

[2] = Storage stability of purified BktB; assay type: physicochemical; details: 10 mM Tris-HCl, pH 7.8, 1 mM DTT, 50% glycerol at −20° C.
Experimental: Purified BktB protein was prepared by growing E. coli EE36 transformed with pMON25754 in LB broth containing ampicillin (100μg/ml) overnight at 37° C. Cells were then harvested by centrifugation, and the pellet was resuspended in 50 mM KPi and 5% glycerol, sonicated, and the sonicate centrifuged to remove cellular debris. The cell extract was desalted using a PD-10 column (Pharmacia), and proteins resolved using a Pharmacia FPLC system and MonoQ anion-exchange column (Pharmacia). Buffer A was 10 mM Tris buffer, pH 7.8, plus 1 mM DTT; buffer B was buffer A plus 1 M KCl. The gradient was 0 to 10% B in 10 min, then to 35% B in 40 min. The flow rate was 1 ml/min, and the resolved proteins were collected at the rate of 1 ml/fraction. The BktB protein was found in fractions 20 to 27, with the maximum activity peak at fraction 23. […] The enzyme was stored in 10 mM Tris-HCl, pH 7.8, 1 mM DTT, 50% glycerol at −20° C.

E. coli DH5α cells = test: PHA production by transformed E. coli DH5α on glucose and propionate (GC analysis); assay type: cell-based; details: Set 2 versus Set 1
Experimental: E. coli DH5α cells contining both sets of plasmids expressing all of the required PHA biosynthesis enzymes were grown on 50 ml of LB broth containing all three antibiotics supplemented with 0.75% glucose and 0.15% propionate. The tac promoters were induced with IPTG at a final concentration of 0.5 mM. Nalidixic acid was added to a final concentration of 60 μg/ml. The cells were grown under antibiotic selection (see above) for 24 hours and assayed for the presence of PHA polymer. Cells were centrifuged at 7,000 rpm for 20 min., washed with 25 ml methanol, recentrifuged, washed with 15 ml hexane, and recentrifuged. Cell pellets were dried under N2 for two hours, and the dry cell weights determined. 6.5 ml of chloroform were added to extract the PHA at 100° C. for one hour. The solution was cooled and filtered through a PTFE syringe filter (13 mm diameter, 0.45 μm pore). The PHA was precipitated by the addition of 50 ml of methanol, centrifuged, and washed with hexane. The polymer was dried at 70° C. for two hours, and polymer weight was determined. Methanolysis was performed by dissolving 3-5 mg of PHA sample by the addition of 1 ml of CHCl3, with methyl benzoate as an internal standard for normalization of the data. […] The solution was then analyzed by gas chromatography as described in the section entitled “In vivo Analysis of Cloned E. coli ilvA Genes”.

B1: BktB: A. eutrophus β-ketothiolase encoded on pBK6, amino acid sequence SEQ ID NO:11 (protein, listed as Alcaligenes eutrophus)
chain: MTREVVVVSGVRTAIGTFGGSLKDVAPAELGALVVREALARAQVSGDDVGHVVFGNVIQTEPRDMYLGRVAAVNGGVTINAPALTVNRLCGSGLQAIVSAAQTILLGDTDVAIGGGAESMSRAPYLAPAARWGARMGDAGLVDMMLGALHDPFHRIHMGVTAENVAKEYDISRAQQDEAALESHRRASAAIKAGYFKDQIVPVVSKGRKGDVTFDTDEHVRHDATIDDMTKLRPVFVKENGTVTAGNASGLNDAAAAVVMMERAEAERRGLKPLARLVSYGHAGVDPKAMGIGPVPATKIALERAGLQVSDLDVIEANEAFAAQACAVTKALGLDPAKVNPNGSGISLGHPIGATGALITVKALHELNRVQGRYALVTMCIGGGQGIAAIFERI
- % Turnover C4 Product ([1]; butyryl-CoA 0.6 mM): 1.0%
- % Turnover C6 Product ([1]; butyryl-CoA 0.6 mM): 4.9%
- % Turnover C4 Product ([1]; butyryl-CoA 1.2 mM): 0.6%
- % Turnover C6 Product ([1]; butyryl-CoA 1.2 mM): 7.3%
- % Turnover C4 Product ([1]; butyryl-CoA 2.4 mM): 0.4%
- % Turnover C6 Product ([1]; butyryl-CoA 2.4 mM): 7.9%
- % Turnover C4 Product ([1]; propionyl-CoA 0 mM): 4.2%
- % Turnover C4 Product ([1]; propionyl-CoA 0.6 mM): 1.8%
- % Turnover C5 Product ([1]; propionyl-CoA 0.6 mM): 13.2%
- % Turnover C4 Product ([1]; propionyl-CoA 1.2 mM): 1.0%
- % Turnover C5 Product ([1]; propionyl-CoA 1.2 mM): 15.6%
- % Turnover C4 Product ([1]; propionyl-CoA 2.4 mM): 0.7%
- % Turnover C5 Product ([1]; propionyl-CoA 2.4 mM): 17.8%
- stability of activity on storage [2]: Activity remained constant for a minimum of two months
- greater percentage of the C5 monomer than cells expressing the PhbA β-ketothiolase (E. coli DH5α cells): five-to-six-fold
